Test results as given in publication PMC5342150, “PRMT5 competitively binds to CDK4 to promote G1-S transition upon glucose induction in hepatocellular carcinoma” (Oncotarget, 2016).

Assays:
6× His-tagged PRMT5 = biological target: T1, 6× His-tagged PRMT5 (human, UniProt O14744 1-637); test: pull-down; binding reaction (500 μl) with 100 μl purified His-p16^INK4a (or His-PRMT5) and increasing amounts (50, 100, 200, 400 μl) of purified His-PRMT5 (or His-p16^INK4a) incubated with GST-fused CDK4 1-70 aa; Western blot; conditions: both partners purified
T1 construct: protein arginine methyltransferase 5 (PRMT5), human; also called His-PRMT5
T1 sequence (O14744 whole entry, the tested form may be a part): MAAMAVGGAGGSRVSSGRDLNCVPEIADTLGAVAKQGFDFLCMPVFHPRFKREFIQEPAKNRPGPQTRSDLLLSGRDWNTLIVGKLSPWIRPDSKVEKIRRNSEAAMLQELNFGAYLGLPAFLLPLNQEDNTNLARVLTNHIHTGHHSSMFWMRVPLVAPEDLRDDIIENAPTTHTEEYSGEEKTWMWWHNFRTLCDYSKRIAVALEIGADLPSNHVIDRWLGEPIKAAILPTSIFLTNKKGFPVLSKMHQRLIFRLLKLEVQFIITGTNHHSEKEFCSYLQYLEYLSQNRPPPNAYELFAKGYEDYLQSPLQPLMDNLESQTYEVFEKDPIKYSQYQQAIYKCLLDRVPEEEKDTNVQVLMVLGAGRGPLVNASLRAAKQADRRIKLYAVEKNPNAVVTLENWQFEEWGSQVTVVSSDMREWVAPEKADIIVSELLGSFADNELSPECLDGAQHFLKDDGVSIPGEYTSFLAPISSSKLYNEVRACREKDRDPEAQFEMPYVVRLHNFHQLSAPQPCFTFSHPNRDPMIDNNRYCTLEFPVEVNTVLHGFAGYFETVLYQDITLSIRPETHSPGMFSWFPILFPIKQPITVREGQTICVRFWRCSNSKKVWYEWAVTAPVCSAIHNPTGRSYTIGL

6× His-tagged p16^INK4a = biological target: T2, 6× His-tagged p16^INK4a (human, UniProt P42771 1-156); test: as above; conditions: both partners purified
T2 construct: p16^INK4a, the major isoform of CDKN2A, human; also called His-p16^INK4a; CDKN2A
T2 sequence (looked up): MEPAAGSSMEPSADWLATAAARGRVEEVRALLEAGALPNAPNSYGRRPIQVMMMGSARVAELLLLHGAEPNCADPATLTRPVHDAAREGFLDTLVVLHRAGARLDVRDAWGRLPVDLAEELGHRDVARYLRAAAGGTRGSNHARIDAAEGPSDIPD

binding result (6× His-tagged PRMT5): binds
binding result (6× His-tagged p16^INK4a): binds
B1: GST-fused CDK4 1-70 aa (domain or fragment, human, UniProt P11802-1 1-70, looked up)
chain: MATSRYEPVAEIGVGAYGTVYKARDPHSGHFVALKSVRVPNGGGGGGGLPISTVREVALLRRLEAFEHPN
notes: cyclin dependent kinase 4 (CDK4), human, amino acids 1-70 of NP_000066; also called GST-CDK4 fragment 1-70; source: E. coli BL21, purified (glutathione-Sepharose 4B beads)
